Tested on: eighteen amino acid peptide containing the amino acid sequence PLGIA, covalently labeled with the same fluorophore near each end (HES structure)

Chain of matrix metalloprotease -9 (MMP-9) (chain, as listed by the source): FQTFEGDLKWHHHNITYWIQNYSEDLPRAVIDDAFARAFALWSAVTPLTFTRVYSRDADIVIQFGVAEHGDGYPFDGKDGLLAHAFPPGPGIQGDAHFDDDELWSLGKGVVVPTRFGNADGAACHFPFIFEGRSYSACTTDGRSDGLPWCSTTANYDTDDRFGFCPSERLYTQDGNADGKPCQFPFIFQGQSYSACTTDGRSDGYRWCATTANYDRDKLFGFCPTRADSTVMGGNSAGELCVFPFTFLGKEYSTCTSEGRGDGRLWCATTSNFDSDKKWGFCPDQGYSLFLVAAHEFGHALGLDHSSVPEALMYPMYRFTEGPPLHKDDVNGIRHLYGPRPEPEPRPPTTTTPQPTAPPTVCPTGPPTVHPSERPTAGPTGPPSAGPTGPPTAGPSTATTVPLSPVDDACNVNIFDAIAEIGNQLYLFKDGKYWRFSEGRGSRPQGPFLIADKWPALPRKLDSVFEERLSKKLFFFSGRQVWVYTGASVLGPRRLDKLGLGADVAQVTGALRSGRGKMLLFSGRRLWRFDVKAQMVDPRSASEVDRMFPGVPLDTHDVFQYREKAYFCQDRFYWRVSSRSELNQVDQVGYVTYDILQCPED

For matrix metalloprotease -9 (MMP-9), the “HPLC retention time (C18, reverse phase)” value was “After exposure to MMP-9, the major peaks were at ca. 30 and 31 minutes with the almost complete disappearance of the 38 minute peak” and the “cleavage of the peptide” value was “The PLGIA sequence was recognized by matrix metalloprotease -9 (MMP-9) and is cleaved between the LG and the IA”.
